The term EC50 denotes the concentration that produces a half-maximal response. For orientation: IC50 means the midpoint of a concentration-inhibition curve.

The values below come from US20250282874A1 (SUZHOU TRANSCENTA THERAPEUTICS, published 2025).

Assay [1] addresses T1, human PD-L1 expressed on cells (human, UniProt Q9NZQ7 19-290).
T1 construct: whole, on cells; also called MC38/hPD-L1
In words: flow cytometry on activated human T cells, Mean FITC-A.

Another assay has as its target cynoPD-L1-Fc (cynomolgus, UniProt G7PSE7 19-238, Fc carrier is left out of the letters.). Nature of the assay: competition ELISA, cynoPD-L1-Fc coated; blocked ligand cyno PD-1-Fc-biotin, OD450.
In assay [2] the target is T2, hPD-L1 (Acro Biosystems, PD1-H5229) (human, UniProt Q9NZQ7 19-238).
T2 construct: also called human PD-L1; hPD-L1 protein
Nature of the assay: ELISA, hPD-L1 coated, anti-human Fc-HRP, OD450.

Assay [3] concerns the target T1, human PD-L1 expressed on cells. Nature of the assay: cell-based or functional assay.
The next assay has as its target T3, human PD-L1-Fc (human, UniProt Q9NZQ7 19-239).
T3 construct: also called hPD-L1-Fc; human PD-L1-Fc (Sino Biological, 70110-D02H); not shown: Fc part
In words: competition ELISA, hPD-L1-Fc coated; blocked ligand hPD-1-Fc-biotin, OD450.

For assay [4], the target named is T1, human PD-L1 expressed on cells. Nature of the assay: flow cytometry on NCI-H460 cells, Mean FITC-A. In general terms: Flow cytometry measures light scatter and fluorescence of single cells or particles in a stream.
The target is the same in assay [5]. In words: flow cytometry on PHA-activated human PBMC (T cells), Mean APC-A.
Assay [6] has the same target. In words: flow cytometry on MC38/hPD-L1 cells, Mean FITC-A.
The target is the same in assay [7]. In words: flow cytometry on 293T-PD-L1-CD3L cells, PE anti-human IgG, Mean PE-A.
Assay [8] addresses cynomolgus PD-L1 on activated cynomolgus T cells (cynomolgus, UniProt G7PSE7 19-290). Nature of the assay: flow cytometry on PHA-activated cynomolgus PBMC (T cells), Mean APC-A.
In assay [9] the target is T1, human PD-L1 expressed on cells. Nature of the assay: cell-based or functional assay. This is another data set of the same source.
The target is the same in assay [10]. Nature of the assay: flow cytometry on 293T-PD-L1-CD3L cells, Mean FITC-A as printed.
Assay [11] has the same target. Nature of the assay: flow cytometry on NCI-H292 cells, Mean FITC-A.
A further assay has as its target T4, human TGFβ1 (human, UniProt P01137 279-390).
T4 construct: also called hTGFβ-1; TGFb1
In words: bridging ELISA, hTGFβ-1 coated, detected with hPD-L1-biotin and streptavidin-HRP. For orientation: An ELISA detects its analyte on a solid surface through an enzyme-linked reagent.

Assay [12] deals with T1, human PD-L1 expressed on cells. Nature of the assay: cell-based or functional assay. The source holds these as a separate data set.
Assay [13] shares this target. Nature of the assay: flow cytometry on EMT6/hPD-L1 cells, Mean FITC-A.
Assay [14] concerns the target T2, hPD-L1 (Acro Biosystems, PD1-H5229). Nature of the assay: ELISA, hPD-L1 coated, anti-human Fc-HRP, OD450. This is another data set of the same source.
The target in the next assay is human CD47 (human, UniProt Q08722 19-139, limits assumed). Nature of the assay: ELISA on human CD47, OD450.
human CD47, sequence (Q08722 19-139 limits assumed): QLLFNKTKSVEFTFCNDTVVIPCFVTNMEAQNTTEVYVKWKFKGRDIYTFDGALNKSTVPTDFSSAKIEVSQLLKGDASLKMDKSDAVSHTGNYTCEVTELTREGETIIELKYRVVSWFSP
The target of assay [15] is T2, hPD-L1 (Acro Biosystems, PD1-H5229). Nature of the assay: ELISA on human PD-L1, OD450.
Assay [16] addresses T5, Human IL-1β protein (Sino Biological, Cat #10139) (human, UniProt P01584 117-269). In words: cell-based or functional assay.
For assay [17], the target named is T5, Human IL-1β protein (Sino Biological, …). Nature of the assay: ELISA, hIL-1β protein coated, anti-human Fc-HRP, OD450.

cynoPD-L1-Fc, sequence (G7PSE7 entry or part of it limits assumed): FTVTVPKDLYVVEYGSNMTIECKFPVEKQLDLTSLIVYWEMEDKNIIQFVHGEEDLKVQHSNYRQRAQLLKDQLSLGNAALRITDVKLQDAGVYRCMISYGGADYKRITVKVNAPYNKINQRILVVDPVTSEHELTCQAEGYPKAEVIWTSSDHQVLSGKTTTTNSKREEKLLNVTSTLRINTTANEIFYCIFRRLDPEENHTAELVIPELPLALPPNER
T4 sequence (P01137 279-390 limits assumed): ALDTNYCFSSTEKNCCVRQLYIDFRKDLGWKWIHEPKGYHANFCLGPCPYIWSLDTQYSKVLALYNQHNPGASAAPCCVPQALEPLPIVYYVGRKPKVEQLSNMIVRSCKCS
cynomolgus PD-L1 on activated cynomolgus T cells, sequence (G7PSE7 entry or part of it limits assumed): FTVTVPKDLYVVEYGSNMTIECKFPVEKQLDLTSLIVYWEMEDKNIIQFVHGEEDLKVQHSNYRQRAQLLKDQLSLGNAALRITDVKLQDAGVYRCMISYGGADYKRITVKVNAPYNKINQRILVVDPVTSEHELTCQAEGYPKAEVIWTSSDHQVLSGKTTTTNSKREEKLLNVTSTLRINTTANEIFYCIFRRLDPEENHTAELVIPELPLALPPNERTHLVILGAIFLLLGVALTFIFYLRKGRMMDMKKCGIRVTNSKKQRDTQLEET

B1: AM4B6-hIgG1 monoclonal antibody (antibody, V domains shown)
VH: QVQLVQSGAEVKKPGASVKVSCKASGYVFTDYYMNWVRQAPGQSLEWMGDINPNNAETLYNHKFKGRVTVTVDKSISTAYMELSRLRSDDTAVYYCVKWGDGPFAYWGQGTLVTVSS
VL: DIQMTQSPSSLSASVGDRVTITCKASQNVGAAVAWYQQKPGKAPKLLIYSVSDRYTGVPSRFSGSGSGTDFTLTISSLQPEDIATYYCQQYSNYPTFGQGTKLEIK
notes: hIgG1; also called AM4B6 mAb; AM4B6 monoclonal antibody
In the case of B1, the EC50 in [1] was found to be 0.16 nM; in [2], 0.0114 nM; in assay [4], 0.222 nM; in assay [5] it was 0.267 nM; in assay [6] it was 0.299 nM; in assay [7] it was 0.903 nM. The concentration giving a half-maximal response (EC50) came out at 0.684 nM in [8]; 0.774 nM in [10]; 0.199 nM in assay [11]; 0.24 nM in [13]; 0.0313 nM in assay [14]. The concentration for half-maximal inhibition (IC50) was 2.06 nM with cynoPD-L1-Fc and 2.28 nM in the assay with human PD-L1-Fc. The “IC50 (so in the source), NFAT-luciferase luminescence, hPD-L1/hPD-1 reporter cell assay” value in assay [3] amounted to 0.714 nM. Further, in assay [9], the “IC50 (so in the source), luminescence (axis printed OD450), 293T-PD-L1-CD3L cells with Jurkat-NFAT-Luc-PD1 cells” value came out at 0.994 nM. Moreover, the binding result with human TGFβ1 was “no binding (tested: 100 nM)”. The “IC50 (so in the source), NFAT-luciferase luminescence, 293T-PD-L1-CD3L cells with Jurkat-NFAT-Luc-PD1 cells” value in assay [12] is 1.08 nM.

B2: AM4B6-hIgG1-SIRPα (other)
heavy: QVQLVQSGAEVKKPGASVKVSCKASGYVFTDYYMNWVRQAPGQSLEWMGDINPNNAETLYNHKFKGRVTVTVDKSISTAYMELSRLRSDDTAVYYCVKWGDGPFAYWGQGTLVTVSSASTKGPSVFPLAPSSKSTSGGTAALGCLVKDYFPEPVTVSWNSGALTSGVHTFPAVLQSSGLYSLSSVVTVPSSSLGTQTYICNVNHKPSNTKVDKKVEPKSCDKTHTCPPCPAPEFEGGPSVFLFPPKPKDTLMISRTPEVTCVVVDVSHEDPEVKFNWYVDGVEVHNAKTKPREEQYNSTYRVVSVLTVLHQDWLNGKEYKCKVSNKALPASIEKTISKAKGQPREPQVYTLPPSRDELTKNQVSLTCLVKGFYPSDIAVEWESNGQPENNYKTTPPVLDSDGSFFLYSKLTVDKSRWQQGNVFSCSVMHEALHNHYTQKSLSLSPGAGGGGSGGGGSGGGGSGGGGSGEEELQIIQPDKSVLVAAGETATLRCTITSLFPVGPIQWFRGAGPGRVLIYNQRQGPFPRVTTVSDTTKRNNMDFSIRIGNITPADAGTYYCIKFRKGSPDDVEFKSGAGTELSVRAKPS
light: DIQMTQSPSSLSASVGDRVTITCKASQNVGAAVAWYQQKPGKAPKLLIYSVSDRYTGVPSRFSGSGSGTDFTLTISSLQPEDIATYYCQQYSNYPTFGQGTKLEIKRTVAAPSVFIFPPSDEQLKSGTASVVCLLNNFYPREAKVQWKVDNALQSGNSQESVTEQDSKDSTYSLSSTLTLSKADYEKHKVYACEVTHQGLSSPVTKSFNRGEC
notes: Symmetrical bifunctional antibody against PD-L1 and CD47 (SIRPα_CV1 on the heavy chain)
As for B2, the results for the concentration giving a half-maximal response (EC50) (in the assay with human CD47; in assay [15]) were 0.24 nM and 0.154 nM, respectively.

B3: AM4B6-hIgG1-SIRPα (KIH) (other)
heavy 1: QVQLVQSGAEVKKPGASVKVSCKASGYVFTDYYMNWVRQAPGQSLEWMGDINPNNAETLYNHKFKGRVTVTVDKSISTAYMELSRLRSDDTAVYYCVKWGDGPFAYWGQGTLVTVSSASTKGPSVFPLAPSSKSTSGGTAALGCLVKDYFPEPVTVSWNSGALTSGVHTFPAVLQSSGLYSLSSVVTVPSSSLGTQTYICNVNHKPSNTKVDKKVEPKSCDKTHTCPPCPAPEFEGGPSVFLFPPKPKDTLMISRTPEVTCVVVDVSHEDPEVKFNWYVDGVEVHNAKTKPREEQYNSTYRVVSVLTVLHQDWLNGKEYKCKVSNKALPASIEKTISKAKGQPREPQVYTLPPCRDELTKNQVSLWCLVKGFYPSDIAVEWESNGQPENNYKTTPPVLDSDGSFFLYSKLTVDKSRWQQGNVFSCSVMHEALHNHYTQKSLSLSPGAGGGGSGGGGSGGGGSGGGGSGEEELQIIQPDKSVLVAAGETATLRCTITSLFPVGPIQWFRGAGPGRVLIYNQRQGPFPRVTTVSDTTKRNNMDFSIRIGNITPADAGTYYCIKFRKGSPDDVEFKSGAGTELSVRAKPS
heavy 2: QVQLVQSGAEVKKPGASVKVSCKASGYVFTDYYMNWVRQAPGQSLEWMGDINPNNAETLYNHKFKGRVTVTVDKSISTAYMELSRLRSDDTAVYYCVKWGDGPFAYWGQGTLVTVSSASTKGPSVFPLAPSSKSTSGGTAALGCLVKDYFPEPVTVSWNSGALTSGVHTFPAVLQSSGLYSLSSVVTVPSSSLGTQTYICNVNHKPSNTKVDKKVEPKSCDKTHTCPPCPAPEFEGGPSVFLFPPKPKDTLMISRTPEVTCVVVDVSHEDPEVKFNWYVDGVEVHNAKTKPREEQYNSTYRVVSVLTVLHQDWLNGKEYKCKVSNKALPASIEKTISKAKGQPREPQVCTLPPSRDELTKNQVSLSCAVKGFYPSDIAVEWESNGQPENNYKTTPPVLDSDGSFFLVSKLTVDKSRWQQGNVFSCSVMHEALHNHYTQKSLSLSPGK
light: DIQMTQSPSSLSASVGDRVTITCKASQNVGAAVAWYQQKPGKAPKLLIYSVSDRYTGVPSRFSGSGSGTDFTLTISSLQPEDIATYYCQQYSNYPTFGQGTKLEIKRTVAAPSVFIFPPSDEQLKSGTASVVCLLNNFYPREAKVQWKVDNALQSGNSQESVTEQDSKDSTYSLSSTLTLSKADYEKHKVYACEVTHQGLSSPVTKSFNRGEC
notes: Asymmetric (knob into hole) bifunctional antibody
Regarding B3, the half-maximal effective concentration (EC50) in the assay with human CD47 amounted to 0.167 nM; in assay [15] it was 0.0853 nM.

B4: IgG-scFv-XOMA052-AM4B6 (bispecific antibody)
heavy: QVQLQESGPGLVKPSQTLSLTCSFSGFSLSTSGMGVGWIRQPSGKGLEWLAHIWWDGDESYNPSLKSRLTISKDTSKNQVSLKITSVTAADTAVYFCARNRYDPPWFVDWGQGTLVTVSSASTKGPSVFPLAPSSKSTSGGTAALGCLVKDYFPEPVTVSWNSGALTSGVHTFPAVLQSSGLYSLSSVVTVPSSSLGTQTYICNVNHKPSNTKVDKKVEPKSCDKTHTCPPCPAPEFEGGPSVFLFPPKPKDTLMISRTPEVTCVVVDVSHEDPEVKFNWYVDGVEVHNAKTKPREEQYNSTYRVVSVLTVLHQDWLNGKEYKCKVSNKALPASIEKTISKAKGQPREPQVYTLPPSRDELTKNQVSLTCLVKGFYPSDIAVEWESNGQPENNYKTTPPVLDSDGSFFLYSKLTVDKSRWQQGNVFSCSVMHEALHNHYTQKSLSLSPGAGGGGSGGGGSGGGGSGGGGSQVQLVQSGAEVKKPGASVKVSCKASGYVFTDYYMNWVRQAPGQSLEWMGDINPNNAETLYNHKFKGRVTVTVDKSISTAYMELSRLRSDDTAVYYCVKWGDGPFAYWGQGTLVTVSSGGGGSGGGGSGGGGSGGGGSDIQMTQSPSSLSASVGDRVTITCKASQNVGAAVAWYQQKPGKAPKLLIYSVSDRYTGVPSRFSGSGSGTDFTLTISSLQPEDIATYYCQQYSNYPTFGQGTKLTVL
light: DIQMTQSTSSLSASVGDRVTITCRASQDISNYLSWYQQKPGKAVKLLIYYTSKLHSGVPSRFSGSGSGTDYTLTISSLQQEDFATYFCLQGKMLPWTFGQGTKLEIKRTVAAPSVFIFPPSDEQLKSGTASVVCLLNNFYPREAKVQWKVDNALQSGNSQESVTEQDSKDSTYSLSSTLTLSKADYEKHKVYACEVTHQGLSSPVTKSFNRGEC
notes: Anti-IL-1β IgG (Gevokizumab) with the AM4B6 scFv on the C-terminus of the heavy chain
B4: the EC50 in [2] was found to be 0.0349 nM; in assay [17], 0.0155 nM; in assay [10] it was 1.4 nM. Further, the “IC50, IL-6 release (pg/mL) of HDF cells stimulated with human IL-1β” value in assay [16] was determined as 0.0141 nM. Also, the “IC50 (so in the source), luminescence (axis printed OD450), 293T-PD-L1-CD3L cells with Jurkat-NFAT-Luc-PD1 cells” value in assay [9] turned out to be 1.49 nM.
